Results on two molecules are retold here after US20240299449A1 (University of California, published 2024).

Test [1] deals with T1, recombinant fusion protein comprised of the C-terminal extracellular domain of CD72 (aa 117-359) fused to a … (human, UniProt P21854 117-359, biotinylated (on the Fc domain; site not stated)).
T1 chain: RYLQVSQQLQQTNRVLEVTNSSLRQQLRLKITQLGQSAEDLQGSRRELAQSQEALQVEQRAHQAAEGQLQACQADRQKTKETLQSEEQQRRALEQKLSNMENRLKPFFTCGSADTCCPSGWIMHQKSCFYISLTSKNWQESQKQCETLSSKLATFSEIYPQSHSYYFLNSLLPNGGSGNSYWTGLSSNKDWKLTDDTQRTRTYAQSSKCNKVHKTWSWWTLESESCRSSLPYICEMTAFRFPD
Put plainly: on-yeast binding (yeast display titration).

Test [2] concerns the target T2, recombinant fusion protein comprised of the C-terminal extracellular domain of CD72 (aa 117-359) fused to a … (human, UniProt P21854 117-359, biotinylated (on the Fc domain; site not stated)).
T2 construct: range 117-359; Expressed in mammalian cells; CD72 is a type II protein, so the Fc may be N-terminal; also called CD72-Fc; CD72-ECD-Fc; not shown: human Fc domain
T2 sequence (looked up): T1 chain
Briefly: on-yeast affinity measurement, flow cytometry, titration of CD72-Fc. From the text:
FIG. 4a-e: Isolation of high-affinity CD72 nanobodies with yeast display (a) Schematic of workflow for in vitro anti-CD72 nanobody selection using yeast display. (b) Structure models of the recombinant Fc-fusion proteins used to perform yeast display selections. The Fc protein on the left was used to negatively select potential off-target nanobodies while the CD72-Fc protein (CD72 extracellular domain fused to a human Fc domain) was used to perform positive selection steps to isolate CD72-specific nanobodies (c) Schematic displaying the nanobody yeast display selection strategy for each MACS and FACS selection round to enrich for CD72-specific nanobody binders. Two rounds of MACS followed by four rounds of FACS with decreasing concentration of CD72 antigen produced high affinity anti-CD72 nanobodies. (d) On-yeast binding of recombinant CD72-Fc fusion protein for CD72-selected nanobodies Nb.B5 (nanobody sequence SEQ ID NO:2) and Nb.C2 (nanobody sequence SEQ ID NO:1) expressed on yeast to determine estimated binding affinities. Kd determined by curve fitting using non-linear least squares regression. (e) Flow cytometry plots of yeast clone Nb.C2 binding to 10 nM CD72-ECD-Fc protein (left) or 10 nM Fc protein (right). […]

B1: Nb.C2 (VHH)
VHH: QVQLQESGGGLVQAGGSLRLSCAASGTIFDWYSMGWYRQAPGKERELVAGIDTGANTYYADSVKGRFTISRDNAKNTVYLQMNSLKPEDTAVYYCAAHDDGDPWHVYWGQGTQVTVSS
notes: display was detected with anti-HA-FITC; also called yeast clone Nb.C2
B1: the Kd in test [1] came to 1.5 nM. Moreover, in test [2], the binding result is on record as “binds”.

B2: Nb.B5 (VHH)
VHH: QVQLQESGGGLVQAGGSLRLSCAASGTIFPVDYMGWYRQAPGKERELVAGINYGSNTYYADSVKGRFTISRDNAKNTVYLQMNSLKPEDTAVYYCAAWQPEGYAVDFYHPYWGQGTQVTVSS
With B2, the Kd in test [1] is 1 nM. Further, the binding result in test [2] is “binds”.

In general, Kd refers to the concentration at which binding is half-saturated.
